Patent US20210163582A1 (APRINOIA THERAPEUTICS, published 2021)

What was measured:
[1] = biological target: Tau in 6-month-old rTg4510 brain lysate (UniProt P10636-6 2-383, limits assumed); assay: cell-based or functional assay
[2] = biological target: T1, Tau species in AD (Alzheimer's disease) brain lysate (human, UniProt P10636-8 2-441, limits assumed); assay: dot-blot on spotted AD total brain lysate, antibody in 2-fold dilutions from 6×10^-8 M
T1 construct: Endogenous Tau of a tissue lysate, not a defined construct; also called AD Tau protein; AD brain homogenate
T1 sequence (P10636 other isoform, or with tags, fused parts or gaps limits assumed): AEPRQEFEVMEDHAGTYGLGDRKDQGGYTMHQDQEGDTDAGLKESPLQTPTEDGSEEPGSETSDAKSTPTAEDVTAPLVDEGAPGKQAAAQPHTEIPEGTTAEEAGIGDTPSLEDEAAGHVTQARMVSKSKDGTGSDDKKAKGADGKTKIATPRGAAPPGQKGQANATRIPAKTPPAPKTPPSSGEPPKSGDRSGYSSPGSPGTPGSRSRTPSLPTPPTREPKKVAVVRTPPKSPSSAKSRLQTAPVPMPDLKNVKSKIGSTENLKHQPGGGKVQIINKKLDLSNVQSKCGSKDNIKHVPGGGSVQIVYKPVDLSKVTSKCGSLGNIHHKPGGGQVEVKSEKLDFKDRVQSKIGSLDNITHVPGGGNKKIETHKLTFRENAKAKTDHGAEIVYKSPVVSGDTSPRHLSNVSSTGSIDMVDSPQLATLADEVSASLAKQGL
Method: To facilitate the therapeutic potentials of mAb005 and mAb037, humanization of mAb005 and mAb037 was performed by grafting the complementary determining regions (CDRs) of Variable Heavy chain (VH) and Variable Light chain (VL) into a human IgG4 S228P backbone (no Fab-arm exchange mutant, Silva et al., 2015 JBC). Four point-mutations were introduced in the nearby residues surrounding the CDRs to conserve the functionality of the resulting variants. Dot-blot analysis was performed to determine the EC₅₀ of each variant, compared with the original mouse/chimeric clones as well as to visualize the specificity to AD Tau protein compared with ND Tau protein. […] Dot-blot experiments were performed by spotting of ND and AD total brain lysates in triplicate, and antibody solutions were diluted serially by a dilution factor of 2 from a maximum concentration of 6×10⁻⁸ M. Summary graphs denote Mean±SD of 3 independent experiments for mAb005 and Mean±SD of triplicated wells.

Chain of Tau in 6-month-old rTg4510 brain lysate (P10636 other isoform, or with tags, fused parts or gaps limits assumed): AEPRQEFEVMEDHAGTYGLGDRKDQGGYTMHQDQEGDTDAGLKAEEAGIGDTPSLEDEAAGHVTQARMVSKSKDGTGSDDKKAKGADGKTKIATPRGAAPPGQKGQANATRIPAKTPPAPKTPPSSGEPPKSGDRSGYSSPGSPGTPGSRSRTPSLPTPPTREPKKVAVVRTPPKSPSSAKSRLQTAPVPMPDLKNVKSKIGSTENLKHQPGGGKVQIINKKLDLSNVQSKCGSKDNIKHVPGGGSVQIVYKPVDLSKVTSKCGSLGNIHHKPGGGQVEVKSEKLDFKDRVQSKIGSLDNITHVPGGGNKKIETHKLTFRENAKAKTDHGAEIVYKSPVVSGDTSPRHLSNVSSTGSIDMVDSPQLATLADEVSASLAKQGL

B1: mAb005 (antibody, V domains shown)
VH: EVQLVESGGGLVKPGGSLKLSCAASGFTFSDYGMHWVRQAPEKGLEWVAYSNSDSTTIYYADTVKGRFTISRDNAKSTLFLQMTSLRSEDTAMYYCGRSYYSNYVDYWGQGTTLTVSS
VL: DIVMTQIPLSLPVSLGDQASISCRSSQSLVHSNGNTYLHWYLQKPGQSPKLLIYKVSNRFSGVPDRFSGSGSGTDFTLKISRVEAEDLGVYFCFQSTHVPPTFGGGTKLEIK
notes: Mouse monoclonal from hybridoma; also called mouse mAb005; original mouse clone (of mAb005)
- EC50 of inhibition of Tau seeding (Tau spots per cell in Tau-LM reporter cells) [1]: 72200 pM
- EC50 [2]: 400 pM

B2: mAb037 (antibody, V domains shown)
VH: EVQLQQSGPELVKPGASVKIPCKASGYTFTDYNMDWVKQSHGKSLEWIGDINPNTGGTIYNQKFKGKATLTVDKSSSTAYMELRSLTSEDTAVYYCAGEGPYYYGTTHPFAYWGQGTLVTVSA
VL: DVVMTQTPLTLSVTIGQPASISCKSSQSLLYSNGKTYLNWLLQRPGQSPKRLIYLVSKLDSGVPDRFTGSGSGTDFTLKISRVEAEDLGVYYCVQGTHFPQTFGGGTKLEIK
notes: Mouse monoclonal from hybridoma; also called mouse mAb037; original mouse clone (of mAb037)
- EC50 of inhibition of Tau seeding (Tau spots per cell in Tau-LM reporter cells) [1]: 22900 pM
- EC50 [2]: 540 pM

B3: Humanized mAb005 (antibody, V domains shown)
VH: EVQLVESGGGLVQPGGSLRLSCAASGFTFSDYGMHWVRQAPGKGLEWVAYSNSDSTTIYYADTVKGRFTISRDNAKNSLYLQMNSLRAEDTAVYYCGRSYYSNYVDYWGQGTLVTVSS
VL: DVVMTQSPLSLPVTLGQPASISCRSSQSLVHSNGNTYLHWYLQRPGQSPRLLIYKVSNRFSGVPDRFSGSGSGTDFTLKISRVEAEDVGVYFCFQSTHVPPTFGQGTKLEIK
notes: also called humanized variant of mAb005
- EC50 [2]: 430 pM

B4: Humanized mAb037 (antibody, V domains shown)
VH: QVQLVQSGAEVKKPGASVKVSCKASGYTFTDYNMDWVRQAHGQGLEWIGDINPNTGGTIYNQKFKGRATLTVDTSISTAYMELSRLRSDDTAVYYCAGEGPYYYGTTHPFAYWGQGTLVTVSS
VL: DVVMTQSPLSLPVTLGQPASISCKSSQSLLYSNGKTYLNWLLQRPGQSPRRLIYLVSKLDSGVPDRFSGSGSGTDFTLKISRVEAEDVGVYYCVQGTHFPQTFGGGTKLEIK
notes: also called humanized variant of mAb037
- EC50 [2]: 950 pM
